For assay [1], the target named is T1, human CD37 on CD37-positive human cell lines (MEC-1, MEC-2, Raji, Ramos) (human, UniProt P11049 1-281).
T1 sequence: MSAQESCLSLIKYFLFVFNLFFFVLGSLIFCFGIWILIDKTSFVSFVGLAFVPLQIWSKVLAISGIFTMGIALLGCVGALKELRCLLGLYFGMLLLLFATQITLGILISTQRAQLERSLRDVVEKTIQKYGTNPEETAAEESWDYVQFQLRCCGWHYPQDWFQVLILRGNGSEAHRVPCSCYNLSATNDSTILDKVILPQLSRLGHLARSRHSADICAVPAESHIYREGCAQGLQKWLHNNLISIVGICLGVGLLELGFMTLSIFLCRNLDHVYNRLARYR
As to the kind of experiment: cell-based or functional assay.

For assay [2], the target named is T1, human CD37 on CD37-positive human cell …. Briefly: flow cytometry (FACS) on Ramos cells, median fluorescence against antibody concentration. (In general: In flow cytometry, cells or beads pass a laser one at a time.)
Assay [3] shares this target. As to the kind of experiment: flow cytometry (FACS) on MEC-2 cells, median fluorescence against antibody concentration.

As a reminder, the EC50 (read off the curve) is the concentration giving half of the maximal effect.

B1: chHH1-HDP-(XV) (antibody)
heavy: not shown
light: DIVMTQSHKLLSTSVGDRVSITCKASQDVSTAVDWYQQKPGQSPKLLINWASTRHTGVPDRFTGSGSGTDYTLTISSMQAEDLALYYCRQHYSTPFTFGSGTKLEIKRTVAAPSVFIFPPSDEQLKSGTASVVCLLNNFYPREAKVQWKVDNALQSGNSQESVTEQDSKDSTYSLSSTLTLSKADYEKHKVYACEVTHQGLSSPVTKSFNRGEC
modifications: amatoxin-linker moiety of formula (XV), DAR 3.36; cysteine residues carrying it not stated
Consider B1, for which, in assay [1], the “EC 50 [M], cytotoxicity in vitro on MEC-2 cells” value (from here on “EC 50 [M] … on MEC-2 cells”) was determined as 6.06e-08 M; the “EC 50 [M], cytotoxicity in vitro on Raji cells” value (“EC 50 [M] … on Raji cells” for short) worked out at 6.1e-10 M; the “EC 50 [M], cytotoxicity in vitro on Ramos cells” value (“EC 50 [M] … on Ramos cells” below) worked out at 8.5e-11 M.

B2: chHH1-HDP-(XIII) (antibody)
heavy: not shown
light: B1 light
modifications: amatoxin-linker moiety of formula (XIII); DAR printed as '-'; cysteine residues carrying it not stated
B2: in assay [1], the “EC 50 [M] … on MEC-2 cells” value came out at 5.59e-10 M; the “EC 50 [M] … on Raji cells” value stood at 4.8e-10 M; the “EC 50 [M] … on Ramos cells” value was found to be 5.6e-11 M.

B3: chHH1-HDP-D265C-(XV) (antibody)
heavy: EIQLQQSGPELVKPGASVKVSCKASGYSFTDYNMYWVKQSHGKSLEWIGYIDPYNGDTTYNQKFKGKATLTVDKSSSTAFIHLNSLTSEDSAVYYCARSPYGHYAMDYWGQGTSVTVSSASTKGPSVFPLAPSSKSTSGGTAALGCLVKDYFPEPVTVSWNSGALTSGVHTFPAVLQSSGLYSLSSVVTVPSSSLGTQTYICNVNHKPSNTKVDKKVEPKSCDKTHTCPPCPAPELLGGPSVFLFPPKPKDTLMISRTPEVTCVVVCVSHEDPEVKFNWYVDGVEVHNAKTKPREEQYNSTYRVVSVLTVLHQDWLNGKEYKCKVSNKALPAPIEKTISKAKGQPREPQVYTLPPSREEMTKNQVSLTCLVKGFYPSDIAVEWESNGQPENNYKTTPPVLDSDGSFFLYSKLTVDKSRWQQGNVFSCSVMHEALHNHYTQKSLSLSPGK
light: B1 light
modifications: amatoxin-linker moiety of formula (XV) on heavy chain 265Cys (EU numbering); DAR 2.80
In the case of B3, in assay [1], the “EC 50 [M] … on MEC-2 cells” value amounted to 1.11e-08 M; the “EC 50 [M] … on Raji cells” value was determined as 1.63e-09 M; the “EC 50 [M] … on Ramos cells” value was 4.7e-10 M.

B4: chHH1-HDP-D265C-(XIII) (antibody)
heavy: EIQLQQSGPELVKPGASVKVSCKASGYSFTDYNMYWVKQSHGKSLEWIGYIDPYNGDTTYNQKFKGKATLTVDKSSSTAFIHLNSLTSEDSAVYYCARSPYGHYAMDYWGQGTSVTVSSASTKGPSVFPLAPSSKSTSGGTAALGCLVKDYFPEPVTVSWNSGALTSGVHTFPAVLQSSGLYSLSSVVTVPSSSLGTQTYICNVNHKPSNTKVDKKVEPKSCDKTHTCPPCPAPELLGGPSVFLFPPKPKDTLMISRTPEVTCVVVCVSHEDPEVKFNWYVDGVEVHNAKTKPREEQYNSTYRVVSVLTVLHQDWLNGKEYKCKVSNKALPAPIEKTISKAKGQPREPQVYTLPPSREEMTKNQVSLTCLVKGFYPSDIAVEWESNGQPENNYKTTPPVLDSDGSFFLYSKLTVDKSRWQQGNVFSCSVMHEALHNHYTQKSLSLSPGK
light: B1 light
modifications: amatoxin-linker moiety of formula (XIII) on heavy chain 265Cys (EU numbering); DAR 1.96
B4: in assay [1], the “EC 50 [M] … on MEC-2 cells” value was 5.41e-09 M; the “EC 50 [M] … on Raji cells” value was 6.2e-10 M; the “EC 50 [M] … on Ramos cells” value was 1.1e-10 M.

B5: chHH1-HDP-LALA-D265C (antibody, human IgG1, kappa, L234A L235A)
heavy: EIQLQQSGPELVKPGASVKVSCKASGYSFTDYNMYWVKQSHGKSLEWIGYIDPYNGDTTYNQKFKGKATLTVDKSSSTAFIHLNSLTSEDSAVYYCARSPYGHYAMDYWGQGTSVTVSSASTKGPSVFPLAPSSKSTSGGTAALGCLVKDYFPEPVTVSWNSGALTSGVHTFPAVLQSSGLYSLSSVVTVPSSSLGTQTYICNVNHKPSNTKVDKKVEPKSCDKTHTCPPCPAPEAAGGPSVFLFPPKPKDTLMISRTPEVTCVVVCVSHEDPEVKFNWYVDGVEVHNAKTKPREEQYNSTYRVVSVLTVLHQDWLNGKEYKCKVSNKALPAPIEKTISKAKGQPREPQVYTLPPSREEMTKNQVSLTCLVKGFYPSDIAVEWESNGQPENNYKTTPPVLDSDGSFFLYSKLTVDKSRWQQGNVFSCSVMHEALHNHYTQKSLSLSPGK
light: B1 light
notes: Unconjugated chimeric antibody; Expressed in CHO or HEK293 cells; also called anti-CD37 monoclonal antibody chHH1-LALA-D265C; anti-CD37 chHH1-HDP-LALA-D265C
For B5, the figures for the “EC50 (read off the curve)” value in assay [2] and in assay [3] were around 1 µg/mL and around 3 µg/mL, respectively.

B6: chHH1-HDP-D265C-(XII) (antibody)
heavy: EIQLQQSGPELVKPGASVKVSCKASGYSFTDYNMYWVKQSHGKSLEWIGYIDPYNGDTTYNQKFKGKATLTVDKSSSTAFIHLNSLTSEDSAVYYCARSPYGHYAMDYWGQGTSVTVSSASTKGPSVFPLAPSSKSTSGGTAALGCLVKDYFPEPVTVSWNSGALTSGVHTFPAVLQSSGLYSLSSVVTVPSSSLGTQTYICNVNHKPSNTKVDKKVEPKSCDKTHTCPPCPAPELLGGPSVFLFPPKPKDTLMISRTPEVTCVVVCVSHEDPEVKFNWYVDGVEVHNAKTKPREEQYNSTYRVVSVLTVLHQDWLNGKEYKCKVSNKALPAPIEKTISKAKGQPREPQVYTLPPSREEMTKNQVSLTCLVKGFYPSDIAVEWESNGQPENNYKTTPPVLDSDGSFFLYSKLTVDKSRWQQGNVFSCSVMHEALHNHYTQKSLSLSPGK
light: B1 light
modifications: amatoxin-linker moiety of formula (XII) on heavy chain 265Cys (EU numbering); DAR 2.03
B6: in assay [1], the “EC 50 [M] … on MEC-2 cells” value is 2.14e-08 M; the “EC 50 [M] … on Raji cells” value worked out at 3.9e-09 M; the “EC 50 [M] … on Ramos cells” value was found to be 2.2e-10 M.

B7: conjugate XXVI (antibody)
heavy: B5 heavy
light: B1 light
modifications: amatoxin-linker moiety of formula (XV) on heavy chain 265Cys (EU numbering); DAR 3.15
Turning to B7, in assay [1], the “EC 50 [M] … on MEC-2 cells” value turned out to be 7.54e-09 M; the “EC 50 [M] … on Raji cells” value came out at 2.04e-09 M; the “EC 50 [M] … on Ramos cells” value was determined as 3.2e-10 M.

B8: conjugate XXIV (antibody)
heavy: B5 heavy
light: B1 light
modifications: amatoxin-linker moiety of formula (XIII) on heavy chain 265Cys (EU numbering); DAR printed as '-'
On to B8, for which, in assay [1], the “EC 50 [M] … on MEC-2 cells” value was found to be 1.19e-08 M; the “EC 50 [M] … on Raji cells” value was 7.5e-10 M; the “EC 50 [M] … on Ramos cells” value was found to be 8.6e-11 M.

Source of the values: patent US20220370632A1 (HEIDELBERG PHARMA RESEARCH, published 2022).
